# Experimental data published in patent US20240207432A1 (BIOSION, published 2024).
# T1: human TROP2-his protein (human, UniProt P09758 27-274)
# T1 construct: Biotin-labelled in the ELISAs, unlabelled analyte in Biacore; also called biotin-labeled human TROP2-his protein; biotin human Trop2-his
# T1 sequence: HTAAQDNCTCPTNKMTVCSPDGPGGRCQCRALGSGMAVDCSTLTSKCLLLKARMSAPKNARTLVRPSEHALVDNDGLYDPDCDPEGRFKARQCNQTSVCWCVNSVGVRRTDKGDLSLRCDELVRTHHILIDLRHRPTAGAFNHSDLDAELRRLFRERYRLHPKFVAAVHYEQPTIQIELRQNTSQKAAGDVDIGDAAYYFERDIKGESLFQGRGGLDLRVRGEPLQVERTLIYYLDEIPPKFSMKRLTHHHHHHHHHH
# T2: cynomolgus TROP2-his protein (cynomolgus monkey, UniProt P09758 27-272 (human entry), limits assumed)
# T2 construct: no cleavage site is stated; also called Cynomolgus monkey TROP2-his protein; monkey TROP2
# T2 chain: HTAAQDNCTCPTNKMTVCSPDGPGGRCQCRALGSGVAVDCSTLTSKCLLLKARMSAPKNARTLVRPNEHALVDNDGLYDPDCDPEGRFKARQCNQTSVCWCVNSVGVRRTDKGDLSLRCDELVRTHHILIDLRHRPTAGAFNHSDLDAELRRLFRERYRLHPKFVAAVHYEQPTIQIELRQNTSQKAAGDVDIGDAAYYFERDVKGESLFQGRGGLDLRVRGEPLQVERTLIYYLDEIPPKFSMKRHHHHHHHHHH
# Tests used:
# [1] = molecular target: T1, human TROP2-his protein; assay: SPR Biacore, human TROP2-his analyte
# [2] = molecular target: T1, human TROP2-his protein; assay: competitive ELISA: mouse A1E4F7D4 coated at 2 ug/mL, antibody premixed with biotin human TROP2-his; blocked: binding of TROP2-his to coated A1E4F7D4; no lower plateau reached at 80 nM
# Experimental: (§1) The mouse anti-TROP2 antibodies were tested for epitope binding in a competitive ELISA assay. […] ELISA plates were washed once with wash buffer (PBS+0.05% v/v Tween-20, PBST) and then blocked with 200 μl blocking buffer (5% w/v non-fatty milk in PBST) for 2 hours at 37° C. While blocking, the anti-TROP2 antibodies or controls were diluted with biotin labeled human TROP2-his protein (SEQ ID NO: 67, 34 ng/mL in 2.5% wA non-fatty milk in PBST), starting at 80 nM with a 5-fold serial dilution, and incubated at room temperature for 40 minutes. After plate washing for 4 times, the antibody/TROP2-his protein mixtures were added to the antibody coated plates, 100 μl per well. After incubation at 37° C. for 40 minutes, plates were washed 4 times again using wash buffer. Then the plates were added and incubated with 100 μl Peroxidase Streptavidin (1:10000 dilution in PBST buffer. Jackson Immunoresearch, Cat #016-030-084) for 40 minutes at 37° C. Plates were washed again using wash buffer. Finally, TMB was added and the reaction was stopped using 1M H₂SO₄. The absorbance of each well was read on a microplate reader using dual wavelength mode with 450 nm for TMB and 630 nm as the reference wavelength, and the OD (450-630) values were plotted against antibody concentration. Data was analyzed using Graphpad Prism software and IC₅₀ values were reported.
# [3] = molecular target: T1, human TROP2-his protein; assay: competitive ELISA: mouse A1E11A12D1 coated at 2 ug/mL, antibody premixed with biotin human TROP2-his; blocked: binding of TROP2-his to coated A1E11A12D1; no lower plateau reached at 80 nM
# Experimental: as §1
# [4] = molecular target: T1, human TROP2-his protein; assay: competitive ELISA: BM1 coated at 1 ug/mL, antibody premixed with biotin human TROP2-his; blocked: binding of TROP2-his to coated BM1; partial only: OD drops from about 1.45 to a plateau of about 0.8
# Experimental: as §1
# [5] = molecular target: T2, cynomolgus TROP2-his protein; assay: indirect ELISA, cynomolgus TROP2-his coated, OD(450-630)
# Experimental: The anti-TROP2 antibodies of the disclosure were tested for their cross-reaction with cynomolgus TROP2 proteins. Briefly, 96-well micro plates were coated with 100 μl 2 μg/ml cynomolgus TROP2-his proteins (prepared in-house with SEQ ID NO: 70) in carbonate/bicarbonate buffer (pH 9.6) overnight at 4° C. ELISA plates were washed once with wash buffer (PBS+0.05% v/v Tween-20, PBST) and then blocked with 200 μl/well blocking buffer (5% w/v non-fatty milk in PBST) for 2 hours at 37° C. […] After a final wash, plates were incubated with 100 μl/well TMB (Innoreagents) at room temperature. The reaction was stopped 3-10 minutes later at room temperature with 50 μl/well 1M H₂SO₄, and the absorbance of each well was read on a microplate reader using dual wavelength mode with 450 nm for TMB and 630 nm as the reference wavelength. The OD (450-630) values were plotted against antibody concentration. Data was analyzed using Graphpad Prism software and EC₅₀ values were reported.
# [6] = molecular target: T1, human TROP2-his protein; assay: SPR Biacore, antibody captured on anti-human IgG CM5 chip, TROP2-his analyte
# Experimental: Un-reacted moieties on the chip (biosensor) surface were blocked with ethanolamine. […] The antigen-antibody association kinetics was followed for 2 minutes and the dissociation kinetics was followed for 10 minutes. The association and dissociation curves were fit to a 1:1 Langmuir binding model using BIAcore evaluation software.
# [7] = molecular target: T1, human TROP2-his protein; assay: capture ELISA, captured antibody, biotin human TROP2-his in solution, OD(450-630)
# Experimental: Plates were washed once with wash buffer (PBS+0.05% v/v Tween-20, PBST) and then blocked with 200 μl/well blocking buffer (5% w/v non-fatty milk in PBST) for 2 hours at 37° C. […] Plates containing captured anti-TROP2 antibodies were incubated with biotin-labeled human TROP2-his protein (prepared in house, SEQ ID NO: 67, 56.7 ng/mL in 2.5% w/v non-fatty milk in PBST, 100 μl/well) for 40 minutes at 37° C., washed 4 times, and incubated with streptavidin conjugated HRP (1:10000 dilution in PBST, Jackson Immuno Research, Cat #016-030-084, 100 μl/well) for 40 minutes at 37° C. After a final wash, plates were incubated with 100 μl/well ELISA substrate TMB (Innoreagents, Cat #TMB-S-002) at room temperature. The reaction was stopped in 3-10 minutes at room temperature with 50 μl/well 1M H₂SO₄, and the absorbance of each well was read on a microplate reader using dual wavelength mode with 450 nm for TMB and 630 nm as the reference wavelength. The OD (450-630) values were plotted against antibody concentration. Data was analyzed using Graphpad Prism software and EC₅₀ values were reported.
binder,measurement,setting,value
"huA1E4F7D4-V16 (antibody, human IgG1, kappa, V domains shown, Positions of the X residues are given in the claims; also called humanized antibody huA1E4F7D4-V16) VH: QVQLVQSGAEVKKPGASVKVSCKASGYSFTTHWIHWVRQAPGQGLEWIGTIFPSNAYAVYNQKFRDRATMTADTSISTAYIELSRLRSDDTAVYYCARASYFDYWGQGTTVTVSS VL: EIVLTQSPATLSLSPGERATLSCRASQNIGTSIHWFQQKPGGAPRLLIKYASESISGIPSRFSGSGSGTDFTLTISSLEPEDFAVYYCQHSHSWPFTFGQGTKLEIKR",Kd,[1],0.196 nM
same,koff,[1],7.92e-05 s⁻¹
same,kon,[1],404000 M⁻¹ s⁻¹
"mouse antibody A1H3C5H8E12 (antibody, V domains shown, Mouse monoclonal IgG purified from hybridoma supernatant) VH: QVQLQQSGAELVRPGTSVKMSCKAAGYTFTNYWIDWVKQRPGHGLEWIGNIFPGGFYTNYNEKFKGKATLTADTSSSTAYMQLSSLTSEDSAIYYCARGGVFDYWGQGTTLTVSS VL: DILLTQSPAILSVSPGERVSFSCRASQSIGTSIHWYQQRTNGSPRLLIKYASESISGIPSRFSGSGSGTDFTLSINSVESEDIADYYCQQSNSWPYTFGGGTKLEIK",IC50,[2],4.09 nM
same,IC50,[3],9.92 nM
"mouse antibody C1B3B12D2 (antibody, V domains shown, Mouse monoclonal IgG purified from hybridoma supernatant) VH: QVQLQQSGPELVRPGTSVKMSCKAAGYTFTKFWIGWVKQRPGHGLEWIGNIYPGGAYINYNENFKGKATLTADTFSSTAYMQLNSLTSADSAIYYCAREGSSGYWGQGTTLTVSS VL: DIVMTQSPSSLTVTAGEKVTLSCKCSQSLLNSGTQENYLTWYQQKPGQPPKMLIYWASIREPGVPDRFTGSGSGTDFTLTINNVQAEDLAVYYCQHDYSYPFTFGSGTKLEIK",IC50,[4],~0.6 nM
"benchmark (in house prepared sacituzumab) (antibody, human IgG1, kappa, V domains shown, also called BM; BM1) VH: SVQLQQSGSELKKPGASVKVSCKASGYTFTNYGMNWVKQAPGQGLKWMGWINTYTGEPTYTDDFKGRFAFSLDTSVSTAYLQISSLKADDTAVYFCARGGFGSSYWYFDVWGQGSLVTVSS VL: DIQLTQSPSSLSASVGDRVSITCKASQDVSIAVAWYQQKPGKAPKLLIYSASYRYTGVPDRFSGSGSGTDFTLTISSLQPEDFAVYYCQQHYITPLTFGAGTKVEIKR",EC50,[5],0.138 nM
same,Kd,[6],0.385 nM
same,EC50,[7],0.487 nM
